Results reported in patent US20110230406A1.

Molecular target: rhBMP-2 (R&D Systems, Item number 355-BM/CF) (human) (UniProt P12643)
Test: retention test: peptide-free EDC/NHS crosslinked collagen disc loaded with 40 micrograms rhBMP-2, spun, unbound rhBMP-2 in supernatant by ELISA; control for the affinity biomatrix

Chain of rhBMP-2 (R&D Systems, Item number 355-BM/CF) (human) (P12643 283-396 limits assumed): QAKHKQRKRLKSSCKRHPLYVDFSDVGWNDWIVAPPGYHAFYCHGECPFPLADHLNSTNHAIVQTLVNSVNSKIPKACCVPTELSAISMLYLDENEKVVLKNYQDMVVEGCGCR

affinity peptide-free EDC/NHS crosslinked collagen disc (6 mm diameter)
% rhBMP-2 incorporation: 40 % by weight
